In paper PMC10377357 (2023):

B1: Rps2(1–145)-TurboID [S. cerevisiae] / Tsr4 [S. cerevisiae (endogenous in YDK11-5A)] (parent complex)
chain 1: MSAPEAQQQKRGGFGGRNRGRPNRRGPRNTEEKGWVPVTKLGRLVKAGKITTIEEIFLHSLPVKEFQIIDTLLPGLQDEVMNIKPVQKQTRAGQRTRFKAVVVVGDSNGHVGLGIKTAKEVAGAIRAGIIIAKLSVIPIRRGYWG
chain 2: MSKIEELPPSDTDDHSYSSKPGDVFLAFVDAPVKETDDILVEDSFIGGEPKWLHPDSEPPAELLKCGACKSADNMKLLLQAFSPLDDEQMSAIQQRLGINNMSYINPQDDRVLYVFLCTECQRKGNSVRCIRGVKKNKNVDSLSEKMASTSLEKDFQINPFDLSNNSDSKCNAFSSNPFGGANANPFGADSINSNISQSKDEGKKKESATVSAKTARKLHDLQKDKEYDGNKCFKSCLLYVEEETFKNKKPAHLQLPKNLKIDKEALDLTGDEDLEKDPIKLDPRTEKLSKFLDDDTFQKFQEVVGYNPLQVLRYDLGGKPLLYAETKVDILSTVPRPGYNPSSQRIFEMQLMPKMIFDLEEVVSVDNGMEWGTILVFTDVENYMPEFDEHGVGYVEECVKVQWESRT
B2: Rps2(76–145)-TurboID [S. cerevisiae] / Pse1 [S. cerevisiae (endogenous in the yeast strains)] (parent complex)
chain 1: LQDEVMNIKPVQKQTRAGQRTRFKAVVVVGDSNGHVGLGIKTAKEVAGAIRAGIIIAKLSVIPIRRGYWG
chain 2: MSALPEEVNRTLLQIVQAFASPDNQIRSVAEKALSEEWITENNIEYLLTFLAEQAAFSQDTTVAALSAVLFRKLALKAPPSSKLMIMSKNITHIRKEVLAQIRSSLLKGFLSERADSIRHKLSDAIAECVQDDLPAWPELLQALIESLKSGNPNFRESSFRILTTVPYLITAVDINSILPIFQSGFTDASDNVKIAAVTAFVGYFKQLPKSEWSKLGILLPSLLNSLPRFLDDGKDDALASVFESLIELVELAPKLFKDMFDQIIQFTDMVIKNKDLEPPARTTALELLTVFSENAPQMCKSNQNYGQTLVMVTLIMMTEVSIDDDDAAEWIESDDTDDEEEVTYDHARQALDRVALKLGGEYLAAPLFQYLQQMITSTEWRERFAAMMALSSAAEGCADVLIGEIPKILDMVIPLINDPHPRVQYGCCNVLGQISTDFSPFIQRTAHDRILPALISKLTSECTSRVQTHAAAALVNFSEFASKDILEPYLDSLLTNLLVLLQSNKLYVQEQALTTIAFIAEAAKNKFIKYYDTLMPLLLNVLKVNNKDNSVLKGKCMECATLIGFAVGKEKFHEHSQELISILVALQNSDIDEDDALRSYLEQSWSRICRILGDDFVPLLPIVIPPLLITAKATQDVGLIEEEEAANFQQYPDWDVVQVQGKHIAIHTSVLDDKVSAMELLQSYATLLRGQFAVYVKEVMEEIALPSLDFYLHDGVRAAGATLIPILLSCLLAATGTQNEELVLLWHKASSKLIGGLMSEPMPEITQVYHNSLVNGIKVMGDNCLSEDQLAAFTKGVSANLTDTYERMQDRHGDGDEYNENIDEEEDFTDEDLLDEINKSIAAVLKTTNGHYLKNLENIWPMINTFLLDNEPILVIFALVVIGDLIQYGGEQTASMKNAFIPKVTECLISPDARIRQAASYIIGVCAQYAPSTYADVCIPTLDTLVQIVDFPGSKLEENRSSTENASAAIAKILYAYNSNIPNVDTYTANWFKTLPTITDKEAASFNYQFLSQLIENNSPIVCAQSNISAVVDSVIQALNERSLTEREGQTVISSVKKLLGFLPSSDAMAIFNRYPADIMEKVHKWFA
B3: Rps2(1–145)-TurboID [S. cerevisiae] / Pse1 [S. cerevisiae (endogenous in the yeast strains)] (parent complex)
chain 1: B1 chain 1
chain 2: B2 chain 2

Variants of: B1
Assay: TurboID-based proximity labeling; parent: 5.9; read off a plot

| enrichment | Variant |
| --- | --- |
| ~5.9 log2 fold change vs controls | chain 1 R95A, chain 1 R97A, chain 1 K99A |

Variants of: B1
Assay: TurboID-based proximity labeling; parent: 210; read off a plot

| response [normalized iBAQ] | Variant |
| --- | --- |
| ~260 | chain 1 R95A, chain 1 R97A, chain 1 K99A |

Variants of: B2
Assay: TurboID-based proximity labeling; baits expressed from plasmid under the copper-inducible CUP1 promoter; parent: 3.1; read off a plot

| enrichment | Variant |
| --- | --- |
| ~-0.4 log2 fold change vs controls | chain 1 R20A, chain 1 R22A, chain 1 K24A |

Variants of: B2
Assay: TurboID-based proximity labeling; baits expressed from plasmid under the copper-inducible CUP1 promoter; parent: 100; read off a plot

| response [normalized iBAQ] | Variant |
| --- | --- |
| ~9 | chain 1 R20A, chain 1 R22A, chain 1 K24A |

Variants of: B3
Assay: TurboID-based proximity labeling; parent: 2; read off a plot

| enrichment | Variant |
| --- | --- |
| ~0.9 log2 fold change vs controls | chain 1 R95A, chain 1 R97A, chain 1 K99A |

Variants of: B3
Assay: TurboID-based proximity labeling; parent: 30; read off a plot

| response [normalized iBAQ] | Variant |
| --- | --- |
| ~26 | chain 1 R95A, chain 1 R97A, chain 1 K99A |
